According to paper PMC6760441, “Structural insights into stressosome assembly” (IUCrJ, 2019):
Residue numbers refer to the chain shown, from its start. Numbers in names are those of the source.

B1: RsbRA (Bacillus subtilis), full length, residues 1-274, native (pET-22b), of the RsbRA-RsbS complex (natural protein, Bacillus subtilis strain 168, UniProt P42409 1-274, looked up)
chain: MMSNQTVYQFIAENQNELLQLWTDTLKELSEQESYQLTDQVYENISKEYIDILLLSVKDENAAESQISELALRAVQIGLSMKFLATALAEFWKRLYTKMNDKRLPDQESTELIWQIDRFFSPINTEIFNQYSISWEKTVSLQKIALQELSAPLIPVFENITVMPLVGTIDTERAKRIMENLLNGVVKHRSQVVLIDITGVPVVDTMVAHHIIQASEAVRLVGAKCLLAGIRPEIAQTIVNLGIDLSQVITKNTLQKGIQTALEMTDRKIVSLGE
notes: RsbRA, Bacillus subtilis strain 168 (ATCC 23857), full length, residues 1-274; N-terminal nonheme globin domain and C-terminal STAS domain; also called native RsbRA; source: E. coli BL21 Star (DE3), co-purified with 6xHis-thioredoxin-RsbS (IMAC, TEV cleavage, SEC)
B2: RsbS (Bacillus subtilis), full length, residues 1-121, tag removed (natural protein, Bacillus subtilis strain 168, UniProt P42410 1-121, looked up)
chain: MRHPKIPILKLYNCLLVSIQWELDDQTALTFQEDLLNKIYETGANGVVIDLTSVDMIDSFIAKVLGDVITMSKLMGAKVVLTGIQPAVAVTLIELGIALEEIETALDLEQGLETLKRELGE
modifications: phosphoserine at 59 (seen in the crystal structure and by peptide mass fingerprinting; likely phosphorylated during expression in E. coli)
notes: RsbS, Bacillus subtilis strain 168 (ATCC 23857), full length, residues 1-121; only a STAS domain; Dimer in solution by SEC-MALS; 60 monomers form an icosahedron in the crystal; The model holds residues 4-119 (chain A) or 5-119 (other chains); A selenomethionine-labelled form was used for phasing; also called native RsbS; Bs RsbS; source: E. coli BL21 Star (DE3), purified (IMAC, TEV cleavage, …)
B3: RsbS S59A mutant (natural protein, Bacillus subtilis)
chain: B2 chain with S59A
notes: RsbS, Bacillus subtilis, with S59A, which restricts phosphorylation; the construct is not described

What was measured:
[1] = target: the molecule itself; assay: cryo-EM structure; RsbRA-RsbS complex at 0.5 mg/ml in 20 mM HEPES pH 7.5, 50 mM NaCl, 0.2 mM TCEP, 5% glycerol; single-particle reconstruction with C1, D2 or I restraints
[2] = target: the molecule itself; assay: crystal structure; RsbS 10 mg/ml; micro-batch at 20 C; 35% MPD, 100 mM MES/sodium hydroxide pH 6.0, 200 mM lithium sulfate; space group I23, five monomers in the asymmetric unit
[3] = target: the molecule itself; assay: SEC-MALS; 200 ul of 1 mg/ml RsbS on a Superdex 200 analytical column; miniDAWN TREOS II MALS and Optilab rEX detectors
[4] = target: B1; assay: cryo-EM structure; RsbRA-RsbS complex at 0.5 mg/ml in 20 mM HEPES pH 7.5, 50 mM NaCl, 0.2 mM TCEP, 5% glycerol; single-particle reconstruction with C1, D2 or I restraints; details: both partners purified

| binding result [4] | Binder | binding result [1] | stoichiometry N [2] | stoichiometry N [3] |
| --- | --- | --- | --- | --- |
|  | B1 | binds |  |  |
| binds | B2 |  | 60 | 2 |
|  | B3 |  |  | 2 |
